Measurements as given in patent US7488590B2, “Modified peptides as therapeutic agents” (Amgen Inc., priority 1998, dated 2009).
Several values for one entry are separate records, joined by “and”; a condition that tells them apart may be missing. Equal values may be shown once. Entries after “also recorded” stand apart in the source; their conditions may differ. Where no end group is shown, it is not given here. Side-chain parts run from the residue outwards. maleimide = maleimide-containing PEG attached to the Cys side-chain thiol; PEG = not defined here

Tests used:
[1] = biological target: T1, human mpl receptor (Homo sapiens, UniProt P40238); experiment: TPO in vitro bioassay: mitogenic (cell-proliferation) assay in IL-3 dependent murine 32D cells transfected with human mpl receptor; format: cell-based
T1 construct: murine 32D cells transfected with the full-length c-Mpl; expressed in transfected cells; host or cells: IL-3 dependent clone of murine 32D cells
T1 sequence (P40238 26-635): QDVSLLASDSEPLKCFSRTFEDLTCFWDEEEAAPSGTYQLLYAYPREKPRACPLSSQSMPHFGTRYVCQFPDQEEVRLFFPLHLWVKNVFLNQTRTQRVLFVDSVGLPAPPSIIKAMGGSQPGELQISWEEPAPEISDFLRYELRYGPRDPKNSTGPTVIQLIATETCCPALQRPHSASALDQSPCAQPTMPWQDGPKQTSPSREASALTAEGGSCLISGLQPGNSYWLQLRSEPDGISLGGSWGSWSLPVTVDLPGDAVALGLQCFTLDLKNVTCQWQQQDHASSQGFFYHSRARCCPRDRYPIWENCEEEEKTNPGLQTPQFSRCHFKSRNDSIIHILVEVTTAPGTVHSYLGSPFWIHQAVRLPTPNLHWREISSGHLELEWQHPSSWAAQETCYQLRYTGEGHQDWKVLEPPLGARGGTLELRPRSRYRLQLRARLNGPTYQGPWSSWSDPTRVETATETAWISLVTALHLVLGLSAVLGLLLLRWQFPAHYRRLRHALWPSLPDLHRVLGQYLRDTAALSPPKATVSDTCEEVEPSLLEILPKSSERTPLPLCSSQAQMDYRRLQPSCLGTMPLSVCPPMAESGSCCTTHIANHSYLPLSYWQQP
Experimental: Bioactivity assay. The TPO in vitro bioassay is a mitogenic assay utilizing an IL-3 dependent clone of murine 32D cells that have been transfected with human mpl receptor. This assay is described in greater detail in WO 95/26746. Cells are maintained in MEM medium containing 10% Fetal Clone II and 1 ng/ml mIL-3. Prior to sample addition, cells are prepared by rinsing twice with growth medium lacking mIL-3. An extended twelve point TPO standard curve is prepared, ranging from […]. Four dilutions, estimated to fall within the linear portion of the standard curve, (100 to 125 pg/ml), are prepared for each sample and run in triplicate. A volume of 100 μl of each dilution of sample or standard is added to appropriate wells of a 96 well microtiter plate containing 10,000 cells/well. After forty-four hours at 37° C. and 10% CO2, MTS (a tetrazolium compound which is bioreduced by cells to a formazan) is added to each well. Approximately six hours later, the optical density is read on a plate reader at 490 nm. A dose response curve (log TPO concentration vs. O.D.-Background) is generated and linear regression analysis of points which fall in the linear portion of the standard curve is performed. Concentrations of unknown test samples are determined using the resulting linear equation and a correction for the dilution factor.
The resulting peptides are readily accessible by conventional solid phase peptide synthesis methods (Merrifield (1963), J. Amer. Chem. Soc. 85: 2149) with either Fmoc or t-Boc chemistry. […] This might be due to differences in the conditions used in the two assays. […] It is interesting to note that a wide range of length is tolerated by the linker. The optimal linker between tandem peptides with the selected TMP monomers apparently is composed of 8 glycines.

[2] = biological target: T2, IL-1R (Homo sapiens, UniProt P14778); experiment: IL-1 Receptor Binding competition assay (IGEN system); conditions: 0.4 nM biotin-IL-1R + 15 nM IL-1-TAG, competitor 3 uM to 1.5 pM
T2 sequence (P14778 18-569): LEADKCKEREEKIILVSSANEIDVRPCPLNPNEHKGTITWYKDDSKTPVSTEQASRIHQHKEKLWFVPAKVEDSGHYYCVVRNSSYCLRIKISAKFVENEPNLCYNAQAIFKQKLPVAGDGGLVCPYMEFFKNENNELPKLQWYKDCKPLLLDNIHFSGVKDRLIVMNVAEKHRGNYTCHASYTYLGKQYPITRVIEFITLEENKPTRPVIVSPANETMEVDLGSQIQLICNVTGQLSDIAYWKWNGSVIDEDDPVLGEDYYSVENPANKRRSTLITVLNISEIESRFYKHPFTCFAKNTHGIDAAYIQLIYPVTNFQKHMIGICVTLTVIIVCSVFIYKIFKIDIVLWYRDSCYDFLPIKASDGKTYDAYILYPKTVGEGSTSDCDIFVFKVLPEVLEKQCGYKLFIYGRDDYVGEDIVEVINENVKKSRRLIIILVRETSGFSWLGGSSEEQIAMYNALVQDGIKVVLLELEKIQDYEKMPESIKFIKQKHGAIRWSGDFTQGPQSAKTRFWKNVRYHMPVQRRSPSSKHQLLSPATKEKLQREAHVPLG
Experimental: Characterization of Fc-IL-1 antagonist peptide and IL-1 antagonist peptide-Fc activity. IL-1 Receptor Binding competition between IL-1β, IL-1RA and Fc-conjugated IL-1 peptide sequences was carried out using the IGEN system. Reactions contained 0.4 nM biotin-IL-1R+15 nM IL-1-TAG+3 uM competitor+20 ug/ml streptavidin-conjugate beads, where competitors were IL-1RA, Fc-IL-1 antagonist, IL-1 antagonist-Fc). Competition was assayed over a range of competitor concentrations from 3 uM to 1.5 pM.

[3] = TPO-dependent cell-proliferation assay, 32D cells transfected with c-Mpl

| Substance | in vitro bioactivity (in words) [1, 3] | also measured |
| --- | --- | --- |
| peptide 13: TMP tandem repeat with a linker composed of GPNG (IEGPTLRQWLAARAGPNGIEGPTLRQWLAARA; TPO-MIMETIC PEPTIDES) | – | increase in potency as compared to the monomer ([1]; TPO-dependent cell-proliferation assay, 32D cells transfected with c-Mpl, versus TMP monomer): about 100 fold; decrease in activity versus the equivalent GGGG-linked analog ([1]; cell-proliferation assay, versus tandem repeat with 4-Gly linker): > 10 fold and 10 fold |
| 21: TMP tandem repeat with potential glycosylation motif NGS in its 8-amino acid linker (IEGPTLRQWLAARAGGGNGSGGIEGPTLRQWLAARA; TPO-MIMETIC PEPTIDES) [compound 21] | maintained high bioactivity; also recorded: activity comparable to that of the —(G)8— linked analog | – |
| peptide 16: TMP tandem repeat in which the two Trp residues were replaced by Ala (IEGPTLRQWLAARAGGGGGGGGIEGPTLRQWLAARA; TPO-MIMETIC PEPTIDES) | inactive | – |
| IL-1RA: competitor in the IL-1 receptor binding competition assay | – | EC50 [2]: 2.65 nM; Ki [2]: 1.41 nM |
| peptide 19: PEGylated peptide (SEQ ID NO: 3); Lys side chain in linker modified by 5 kDa PEG (IEGPTLRQWLAARAGGGK(PEG 5 kDa)GGGGIEGPTLRQWLAARA) | even higher in vitro bioactivity as compared to their unpegylated counterparts | – |
| peptide 20: PEGylated peptide (SEQ ID NO: 4); Cys side chain in linker modified by maleimide-containing PEG (IEGPTLRQWLAARAGGGC([maleimide-PEG])GGGGIEGPTLRQWLAARA; reading uncertain) | even higher in vitro bioactivity as compared to their unpegylated counterparts | – |
| IEGPTLRQWLAARA (TMP) [reference compound] | relatively low biopotency | – |
